Values of other authors, collected in publication PMC7662862.

Experiments:
[1] = biological target: Merlin N-terminal part (FERM) (Homo sapiens) (UniProt P35240); test: SPR
CRB3 (Homo sapiens) = CRB3 (Homo sapiens) (UniProt Q9BUF7); test: ITC
Sequence of UniProt Q9BUF7 (Q9BUF7 27-120): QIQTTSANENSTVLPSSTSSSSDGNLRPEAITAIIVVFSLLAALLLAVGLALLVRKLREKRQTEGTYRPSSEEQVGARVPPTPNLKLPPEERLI

Sequence of UniProt P35240 (P35240 22-311): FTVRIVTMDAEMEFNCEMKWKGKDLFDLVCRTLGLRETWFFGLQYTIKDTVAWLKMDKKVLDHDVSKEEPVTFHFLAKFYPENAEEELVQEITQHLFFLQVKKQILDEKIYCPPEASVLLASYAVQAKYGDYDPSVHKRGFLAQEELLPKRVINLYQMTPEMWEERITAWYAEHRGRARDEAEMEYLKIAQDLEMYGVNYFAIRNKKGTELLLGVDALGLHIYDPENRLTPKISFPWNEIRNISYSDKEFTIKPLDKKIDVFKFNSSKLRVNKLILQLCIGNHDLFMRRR

Row | Kd [1] [nM] | Kd (CRB3 (Homo sapiens)) [nM] | Substance
1 | 3.7 | – | MPP1 (from UniProt Q00013)
2 | – | 70 | MPP5 PDZ-SH3-GUK (from UniProt Q8N3R9)
